# Experimental data: doi:10.1101/2023.02.23.529587 (bioRxiv, 2023)
# B1: full-length OdhA from Corynebacterium glutamicum ATCC13032 (enzyme, UniProt Q8NRC3 1-1221, looked up)
# chain: MSSASTFGQNAWLVDEMFQQFQKDPKSVDKEWRELFEAQGGPNTTPATTEAQPSAPKESAKPAPKAAPAAKAAPRVETKPADKTAPKAKESSVPQQPKLPEPGQTPIRGIFKSIAKNMDISLEIPTATSVRDMPARLMFENRAMVNDQLKRTRGGKISFTHIIGYAMVKAVMAHPDMNNSYDVIDGKPTLIVPEHINLGLAIDLPQKDGSRALVVAAIKETEKMNFSEFLAAYEDIVARSRKGKLTMDDYQGVTVSLTNPGGIGTRHSVPRLTKGQGTIIGVGSMDYPAEFQGASEDRLAELGVGKLVTITSTYDHRVIQGAVSGEFLRTMSRLLTDDSFWDEIFDAMNVPYTPMRWAQDVPNTGVDKNTRVMQLIEAYRSRGHLIADTNPLSWVQPGMPVPDHRDLDIETHNLTIWDLDRTFNVGGFGGKETMTLREVLSRLRAAYTLKVGSEYTHILDRDERTWLQDRLEAGMPKPTQAEQKYILQKLNAAEAFENFLQTKYVGQKRFSLEGAEALIPLMDSAIDTAAGQGLDEVVIGMPHRGRLNVLFNIVGKPLASIFNEFEGQMEQGQIGGSGDVKYHLGSEGQHLQMFGDGEIKVSLTANPSHLEAVNPVMEGIVRAKQDYLDKGVDGKTVVPLLLHGDAAFAGLGIVPETINLAKLRGYDVGGTIHIVVNNQIGFTTTPDSSRSMHYATDYAKAFGCPVFHVNGDDPEAVVWVGQLATEYRRRFGKDVFIDLVCYRLRGHNEADDPSMTQPKMYELITGRETVRAQYTEDLLGRGDLSNEDAEAVVRDFHDQMESVFNEVKEGGKKQAEAQTGITGSQKLPHGLETNISREELLELGQAFANTPEGFNYHPRVAPVAKKRVSSVTEGGIDWAWGELLAFGSLANSGRLVRLAGEDSRRGTFTQRHAVAIDPATAEEFNPLHELAQSKGNNGKFLVYNSALTEYAGMGFEYGYSVGNEDSIVAWEAQFGDFANGAQTIIDEYVSSGEAKWGQTSKLILLLPHGYEGQGPDHSSARIERFLQLCAEGSMTVAQPSTPANHFHLLRRHALSDLKRPLVIFTPKSMLRNKAAASAPEDFTEVTKFQSVINDPNVADAAKVKKVMLVSGKLYYELAKRKEKDGRDDIAIVRIEMLHPIPFNRISEALAGYPNAEEVLFVQDEPANQGPWPFYQEHLPELIPNMPKMRRVSRRAQSSTATGVAKVHQLEEKQLIDEAFEA
# Key:
# crystal structure [1] = target: the molecule itself; assay: crystal structure
# AUC = target: the molecule itself; assay: AUC
# crystal structure [2] = target: the molecule itself; assay: crystal structure; remark: listed apart in the source
# [3] = target: B1; assay: cryo-EM structure
binder,measurement,setting,value
"full-length KGD from Mycobacterium smegmatis (enzyme, UniProt A0R2B1 1-1227, looked up) MSSSPSPFGQNEWLVEEMYRKFRDDPSSVDPSWHEFLVDYSPEPTTDSASNGRTTTAAPVTPPTPAPAPAPEPKAAPKPAAKTEAKPAKPAKSATPAKGDESQILRGAAAAVVKNMNASLEVPTATSVRAIPAKLMIDNRVVINNHLKRTRGGKISFTHLLGYAIVQAVKKFPNMNRHFAVVDGKPTAITPAHTNLGLAIDLQGKDGNRSLVVAAIKRCETMRFGQFIAAYEDIVRRARDGKLTAEDFSGVTISLTNPGTLGTVHSVPRLMQGQGAIIGAGAMEYPAEFQGASEERIADLGIGKLITLTSTYDHRIIQGAESGDFLRTIHQLLLDDDFFDEIFRELGIPYEPVRWRTDNPDSIEDKNARVIELIAAYRNRGHLMADIDPLRLDNTRFRSHPDLDVNSHGLTLWDLDREFKVDGFAGVQRKKLRDILSVLRDAYCRHVGVEYTHILEPEQQRWIQERVETKHDKPTVAEQKYILSKLNAAEAFETFLQTKYVGQKRFSLEGAETVIPMMDAVIDQCAEHGLDEVVIAMPHRGRLNVLANIVGKPYSQIFSEFEGNLNPSQAHGSGDVKYHLGATGTYIQMFGDNDIEVSLTANPSHLEAVDPVLEGLVRAKQDLLDTGEEGSDNRFSVVPLMLHGDAAFAGQGVVAETLNLALLRGYRTGGTIHIVVNNQIGFTTAPTDSRSSEYCTDVAKMIGAPIFHVNGDDPEACAWVARLAVDFRQAFKKDVVIDMLCYRRRGHNEGDDPSMTQPYMYDVIDTKRGSRKAYTEALIGRGDISMKEAEDALRDYQGQLERVFNEVRELEKHEIEPSESVEADQQIPSKLATAVDKAMLQRIGDAHLALPEGFTVHPRVRPVLEKRREMAYEGRIDWAFAELLALGSLIAEGKLVRLSGQDTQRGTFTQRHAVIVDRKTGEEFTPLQLLATNPDGTPTGGKFLVYNSALSEFAAVGFEYGYSVGNPDAMVLWEAQFGDFVNGAQSIIDEFISSGEAKWGQLSDVVLLLPHGHEGQGPDHTSGRIERFLQLWAEGSMTIAMPSTPANYFHLLRRHGKDGIQRPLIVFTPKSMLRNKAAVSDIRDFTESKFRSVLEEPMYTDGEGDRNKVTRLLLTSGKIYYELAARKAKENREDVAIVRIEQLAPLPRRRLAETLDRYPNVKEKFWVQEEPANQGAWPSFGLTLPEILPDHFTGLKRISRRAMSAPSSGSSKVHAVEQQEILDTAFG",stoichiometry N,crystal structure [1],6
B1,stoichiometry N,AUC,6
"OdhAΔ97 (domain or fragment, Corynebacterium glutamicum ATCC13032, UniProt Q8NRC3 98-1221, looked up) KLPEPGQTPIRGIFKSIAKNMDISLEIPTATSVRDMPARLMFENRAMVNDQLKRTRGGKISFTHIIGYAMVKAVMAHPDMNNSYDVIDGKPTLIVPEHINLGLAIDLPQKDGSRALVVAAIKETEKMNFSEFLAAYEDIVARSRKGKLTMDDYQGVTVSLTNPGGIGTRHSVPRLTKGQGTIIGVGSMDYPAEFQGASEDRLAELGVGKLVTITSTYDHRVIQGAVSGEFLRTMSRLLTDDSFWDEIFDAMNVPYTPMRWAQDVPNTGVDKNTRVMQLIEAYRSRGHLIADTNPLSWVQPGMPVPDHRDLDIETHNLTIWDLDRTFNVGGFGGKETMTLREVLSRLRAAYTLKVGSEYTHILDRDERTWLQDRLEAGMPKPTQAEQKYILQKLNAAEAFENFLQTKYVGQKRFSLEGAEALIPLMDSAIDTAAGQGLDEVVIGMPHRGRLNVLFNIVGKPLASIFNEFEGQMEQGQIGGSGDVKYHLGSEGQHLQMFGDGEIKVSLTANPSHLEAVNPVMEGIVRAKQDYLDKGVDGKTVVPLLLHGDAAFAGLGIVPETINLAKLRGYDVGGTIHIVVNNQIGFTTTPDSSRSMHYATDYAKAFGCPVFHVNGDDPEAVVWVGQLATEYRRRFGKDVFIDLVCYRLRGHNEADDPSMTQPKMYELITGRETVRAQYTEDLLGRGDLSNEDAEAVVRDFHDQMESVFNEVKEGGKKQAEAQTGITGSQKLPHGLETNISREELLELGQAFANTPEGFNYHPRVAPVAKKRVSSVTEGGIDWAWGELLAFGSLANSGRLVRLAGEDSRRGTFTQRHAVAIDPATAEEFNPLHELAQSKGNNGKFLVYNSALTEYAGMGFEYGYSVGNEDSIVAWEAQFGDFANGAQTIIDEYVSSGEAKWGQTSKLILLLPHGYEGQGPDHSSARIERFLQLCAEGSMTVAQPSTPANHFHLLRRHALSDLKRPLVIFTPKSMLRNKAAASAPEDFTEVTKFQSVINDPNVADAAKVKKVMLVSGKLYYELAKRKEKDGRDDIAIVRIEMLHPIPFNRISEALAGYPNAEEVLFVQDEPANQGPWPFYQEHLPELIPNMPKMRRVSRRAQSSTATGVAKVHQLEEKQLIDEAFEA",stoichiometry N,crystal structure [2],6
"OdhI from Corynebacterium glutamicum ATCC13032 (natural protein, UniProt Q8NQJ3 1-143, looked up) MSDNNGTPEPQVETTSVFRADLLKEMESSTGTAPASTGAENLPAGSALLVVKRGPNAGARFLLDQPTTTAGRHPESDIFLDDVTVSRRHAEFRINEGEFEVVDVGSLNGTYVNREPRNAQVMQTGDEIQIGKFRLVFLAGPAE",stoichiometry N,[3],1
